Columns and labels:
HKU24 HR2 peptide = HKU24 HR2 peptide (HKU24); assay: peptide ELISA
Eidolon HR2 peptide = Eidolon HR2 peptide (Eidolon); assay: peptide ELISA
[1] = target: C-terminally truncated SARS-CoV-2 S protein (pSARS-CoV2-Strunc), ancestral (SARS-CoV-2, UniProt P0DTC2 14-1273); assay: cell-based or functional assay
Erinaceus HR2 peptide = Erinaceus HR2 peptide (Erinaceus); assay: peptide ELISA
SADS FP peptide = SADS FP peptide (SADS); assay: peptide ELISA
HCoV-229E S ectodomain = target: T1, HCoV-229E S ectodomain (HCoV-229E); assay: ELISA on coated S
T1 construct: range 17-1142

[2] = target: SARS-CoV-2 SD1-RBD Ancestral (SARS-CoV-2 (ancestral), UniProt P0DTC2 319-591); assay: SPR, antigen immobilized, Fab injected

B1: hr2.012 (antibody, V domains shown)
VH: QVQLVQSGAEVKKPGASVKVSCKASGYTFTSHYIHWVRQAPGQGLEWMGIIKPSGGNTIYAQTFQGRVTMTRDTSTSTVYMELRSLTSDDTAVYYCARDQDHGLQRWGQGTLVTVSS
VL: QSVLTQPPSVSAPPGQKVTISCSGSSSNIGNNFVSWYQQLPGTAPKLLIYDNIERPSGIPDRFSGSRSGTSATLGITGLQTGDEADYYCGTWDTSLGAWVFGGGTKVTVL
EC50 (HKU24 HR2 peptide): 0.0249 µg/mL | EC50 (Eidolon HR2 peptide): 0.463 µg/mL | Ancestral Pseudovirus IC50 [1]: 1.72 µg/mL

B2: hr2.013 (antibody, V domains shown)
VH: QVQLVQSGAEVKKPGASVKISCKASGYTFTNNYMNWVRQAPGQGLEWMGIIKPSSGSTIYAHKFQGRVTMTRDTSTSTVYMEVRSLTSEDTAVYYCARDQDHGLQNWGQGTLVTVSS
VL: QSVLTQPPSVSAASGQKVTIYCSGSSSNIASNFVSWYQQFPGTAPKLLIYDNNQRPSGIPDRFSGSRSGTSATLGITGLQTGDEADYYCGTWDTSLGAWVFGGGTKLTVL
EC50 (HKU24 HR2 peptide): 0.027 µg/mL | EC50 (Eidolon HR2 peptide): 0.186 µg/mL

B3: hr2.023 (antibody, V domains shown)
VH: QVQLVQSGAEVKKPGASVKVSCRASENIFSDSYLHWVRQAPGQGLEWMGIITPSGDKTFYAQQFQGRLTMTRDTPTNTLHMDLRGLTSADTAIYYCARQATKGGWDYWGQGTLVTVSS
VL: EIVLTQSPGTLSLSPGESATLSCRASQSVTRNYLAWYQQQPGQAPRLLIYGASNRATGVPDRFSGSGSGTDFTLTISRLEPEDFAVYYCQQYGSSPPTFIFGPGTKVDIK
EC50 (HKU24 HR2 peptide): 0.0124 µg/mL | EC50 (Eidolon HR2 peptide): 0.126 µg/mL

B4: hr2.014 (antibody, V domains shown)
VH: QVQLVQSGAEVKKPGASVKVSCKASGYTFTTYAVHWLRQVPGQRPEWIGWINAANGNTKYSEKFQGRVTITRDTSASTAYMDLRSLRSEDTAVYYCARLLVVRDDPYYYGMDVWGQGTTVTVSS
VL: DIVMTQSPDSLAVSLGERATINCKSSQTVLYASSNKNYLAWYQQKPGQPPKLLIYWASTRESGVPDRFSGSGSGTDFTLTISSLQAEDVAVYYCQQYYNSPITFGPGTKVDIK
EC50 (Erinaceus HR2 peptide): 0.117 µg/mL | Ancestral Pseudovirus IC50 [1]: 0.355 µg/mL

B5: fp.005 (antibody, V domains shown)
VH: VQLVESGGGVVQPGNSLRLSCAASGFRFNNYAMHWVRQAPGKGLEWVAIISYEARNEKYADSVKGRFSISRDNAKNTLYLQMNSLRADDTGVYYCARDLFLSDYDTSGYDRTRGGFDYWGQGALVTVSS
VL: EIVMTQSPATLSVSPGERATLSCRASQSVSNGLAWYQHRFGQPPRLLIYGASTRATGIPTRFSGSGSGTEFTLTISSLQSEDFAVYYCQQYDDWPLITFGGGTKVEIK
EC50 (SADS FP peptide): 0.0252 µg/mL | EC50 (HCoV-229E S ectodomain): 0.0416 µg/mL | Ancestral Pseudovirus IC50 [1]: 9.09 µg/mL

B6: sd1.040 Fab (Fab, V domains shown)
VH: QVQLVQSGAEVKKPGASVKVSCKASGYTFTSFYIHWVRQAPGQGLEWMGIIDPSGGSTSYPQKFQGRVTMTRDTSTSTVYMDLSSLRSEDTAVYYCTRDGSAGDNSWFDPWGQGTLVTVSS
VL: not shown
Kd [2]: 4.2 nM

B7: hr2.016 (antibody, V domains shown)
VH: EVQLLESGGGLVQPGGSLRLSCAASGFMFSKYAMTWVRQTPGKGLEWVSVISGGGGSTYYADSVKGRFTISRDNSKNTLYLQMNSLRAEDTAVYYCAKLLVVFVIDYWGQGALVTVSS
VL: EIVLTQSPGTLSLSPGERATLFCRASQSVSSNLAWYQQKPGRAPRLLISGASSRATGIPDRFSGSGSGTDFTLTISRLEPEDFAVYYCQQYGSSPPTFGQGTKVEIK
EC50 (HKU24 HR2 peptide): 0.00958 µg/mL | EC50 (Eidolon HR2 peptide): 0.033 µg/mL | Ancestral Pseudovirus IC50 [1]: 0.01 µg/mL | Ancestral Pseudovirus IC50 (on cells with [not given]) [1]: 0.012 µg/mL

B8: hr2.025 (antibody, V domains shown)
VH: EVQLVQSGAEVKKPGESLKISCKGSGYSFTNYWIAWVRLMPGKGLEWMGFIFPGDSDTRYSPSFQGQVTISADKSISTAYLQWSSLKASDTAIYYCARRRGNSGNHDPYGMDVWGHGTTVTVSS
VL: not shown
EC50 (HKU24 HR2 peptide): 0.0719 µg/mL | EC50 (Eidolon HR2 peptide): 2.92 µg/mL

B9: hr2.027 (antibody, V domains shown)
VH: EVQLVQSGAEVKKPGESLKISCKGSGYSFANYWIAWVRLMPGKGLEWMGFIFPGDSDTRYSPSFQGQVTISADKSITTAYLHWSSLKASDTAIYFCARRRGNSGNHDPYGMDVWGHGTTVTVSS
VL: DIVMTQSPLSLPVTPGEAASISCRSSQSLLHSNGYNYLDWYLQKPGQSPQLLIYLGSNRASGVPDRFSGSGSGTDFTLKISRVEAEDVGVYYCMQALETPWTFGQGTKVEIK
EC50 (HKU24 HR2 peptide): 0.0919 µg/mL | EC50 (Eidolon HR2 peptide): 1.21 µg/mL
